The subject of assay [1] is SKM9-2. Kind of assay: Deglycosylation analysis: western blotting using SKM9-2 of neuraminidase-treated cell lysates. The settings on record: full-length HEG1, lysates of ACC-MESO4 (native) or HEG1-transfected HEK293T, 6% SDS-PAGE. The assay is classed as binding. The source says: Figure 8 SKM9-2 epitope produced from mesothelioma cells. (a) Chromatogram of SKMepmin3 separation using anion exchange column. SKMepmin3 produced from HEK293T (blue line) or ACC-MESO4 (pink line) was affinity-purified using SKM9-2-immobilized resins and separated by Mini Q 4.6/50 PE. A major peak of SKMepmin3 purified from HEK293T contained two disialyl T antigens (Fig. 6). (b) Western blotting for epitope-fused GPI-anchor protein (7.6231) treated with neuraminidases. Cell lysate of 7.6231-transfected ACC-MESO1 (top panel), ACC-MESO4 (middle panel), or HEK293T (lower panel) was treated with α2-3 Neuraminidase S or Neuraminidase A, resolved by 4–15% SDS-PAGE, and analyzed by western blotting using SKM9-2. (c) Western blotting for full-length HEG1 treated with neuraminidases. Cell lysates of ACC-MESO4 (upper panel) and HEG1-transfected HEK293T (lower panel) were treated with α2-3 Neuraminidase S or Neuraminidase A and analyzed by 6% SDS-PAGE and western blotting using SKM9-2. (d) Schematic of SKM9-2 epitope. Full-length blots are presented in Supplementary Fig. S10.
Monolayer cells were solubilized with 20 mM Tris buffer (pH 8.0) containing 1% SDS, 1 mM phenylmethylsulfonyl fluoride, 125 mU/mL Benzonase Nuclease (Merck Millipore Co., Tokyo, Japan) (25 µL/cm^2 culture surface area). The lysate (10 µL/lane) was resolved by SDS-PAGE under reducing conditions using 6% polyacrylamide gels or 4–15% precast gels (Bio-Rad Laboratories Inc., Hercules, CA, USA). Then it was transferred to a polyvinylidene difluoride membrane (Immobilon-P; Merck Millipore Co.) by semi-dry blotting in a buffer containing 25 mM Tris, 192 mM glycine, 0.1% SDS, and 20% methanol. The membrane was blocked with 5% non-fat milk in 20 mM Tris-buffered saline (pH 7.2) containing 0.1% Tween 20 and reacted with 1 µg/mL of mAb SKM9-2 or anti-FLAG (Anti-DYKDDDDK tag mAb; 1E6, Wako Pure Chemical Industries, Osaka, Japan). After washing, it was treated with horseradish peroxidase-conjugated goat anti-mouse IgG (Jackson ImmunoResearch, West Grove, PA, USA), and developed with Amersham ECL select (GE Healthcare, Buckinghamshire, UK). Although glycan in non-fat milk often interferes the glycan-dependent binding of an antibody, the SKM9-2 binding was not affected by the blocking using non-fat milk, in comparison with 5% bovine serum albumin (Supplementary Fig. S6).
Cell lysate or SKMepmin3 was treated with α2-3 Neuraminidase S, α2-3, 6, 8, 9 Neuraminidase A, and O-Glycosidase (New England Biolabs Japan, Tokyo, Japan) in 50 mM sodium phosphate (pH 7.5) containing 1% Nonidet P-40, according to the manufacturer’s instructions. The cell lysate sample was resolved by 4–15% or 6% SDS-PAGE under reducing conditions and detected by western blotting using SKM9-2. The analysis of the SKMepmin3 sample was performed by SPR.
In general terms: Immunoblotting shows a protein as a band on a membrane.

In assay [2] the test system is SKM9-2. Description: Western blotting using SKM9-2 of HEG1 truncated mutants and epitope-fused GPI-anchor proteins. The assay is classed as binding. Particulars: cell lysates of transfected HEK293T, SDS-PAGE under reducing conditions, 1 µg/mL SKM9-2. The text has this: Figure 1 SKM9-2 binding to truncated mutants of HEG1. Schematics of full-length HEG1 (Full) and the truncated mutants are indicated on the left side and the results of western blotting using SKM9-2 are shown on the right side. Truncated amino acid position, which is based on a full-length variant of HEG1 containing exon 6, is shown as a number in the schematic of domain structure. The region of the SKM9-2 epitope is shown as a red square. […] SLURP GPI-anchor protein[18] was used as a fused GPI-anchor protein (violet square). The terminal sequences of the HEG1 peptide are shown in the western blot lane. The samples were resolved by 6% SDS-PAGE (a and b) or 4–15% SDS-PAGE (c) under reducing conditions and were detected by western blotting using SKM9-2. Cyt, cytoplasmic domain; EGFs, EGF related domains; Ser/Thr, serine/threonine rich region; SLURP, secreted lymphocyte antigen-6/urokinase-type plasminogen activator receptor-related peptide; SP, signal peptide; TM, transmembrane domain. Full-length blots are presented in Supplementary Fig. S7.
Figure 2 Epitope mapping of SKM9-2. Schematic of epitope peptides (left side) and western blots resolved by 4–15% SDS-PAGE (right side) are shown. The HEG1 peptide sequences are indicated in the western blot lane. Each epitope peptide was fused with a signal peptide (dashed line square) and a SLURP GPI-anchor protein (violet square). Full-length blots are presented in Supplementary Fig. S8.
Figure 3 Alanine scanning of SKM9-2 epitope. […] Cell lysates of transfected HEK293T (upper panel) or transfected ACC-MESO1 (lower panel) were resolved by 4–15% SDS-PAGE and analyzed by western blotting using SKM9-2. (b) S897A mutant of FLAG-tagged HEG1 in HEK293T was resolved by 4–15% SDS-PAGE and analyzed by western blotting using SKM9-2 (upper panel) or anti-FLAG mAb (lower panel). Native HEG1 in ACC-MESO4 and FLAG-tagged HEG1 without mutation in HEK293T were used as controls. Full-length blots are presented in Supplementary Fig. S9.
Sequences of tested HEG1 are shown in Supplementary Dataset. Full-length HEG1 cDNA was synthesized from total RNA purified with TRIzol reagent (Thermo Fisher Scientific) from ACC-MESO-4, using an oligo dT primer and SuperScript II RNase H reverse transcriptase (Thermo Fisher Scientific). cDNA encoding the HEG1 open reading frame was amplified by PCR using PrimeSTAR HS DNA Polymerase (Takara Bio Inc., Shiga, Japan). The HEG1 cDNA was cloned and inserted into the pcDNA3.1(−) mammalian expression vector (Thermo Fisher Scientific). For analyses of N-terminal truncation, we inserted mutants into pFLAG-CMV1 (Sigma-Aldrich Japan K.K., Tokyo, Japan). For analyses of C-terminal deletion lacking the transmembrane domain, we used mutants that were fused with a GPI-anchor protein, SLURP1-gpi[18], in pcDNA3.1(+) (Thermo Fisher Scientific) (Supplementary Dataset). Alanine substituted mutants were prepared using site directed mutagenesis. To produce a soluble epitope peptide, a modified HEG1 signal peptide and a C-terminal tag containing the FLAG tag plus a polyhistidine sequence were used in the mammalian expression vector pEF-BOS[39] (Supplementary Dataset). The plasmid constructs were transfected with Lipofectamine 3000 (Thermo Fisher Scientific). The HEG1 peptide-expressing 293 H clone was obtained by selection with geneticin (Thermo Fisher Scientific).
Monolayer cells were solubilized with 20 mM Tris buffer (pH 8.0) containing 1% SDS, 1 mM phenylmethylsulfonyl fluoride, 125 mU/mL Benzonase Nuclease (Merck Millipore Co., Tokyo, Japan) (25 µL/cm^2 culture surface area). The lysate (10 µL/lane) was resolved by SDS-PAGE under reducing conditions using 6% polyacrylamide gels or 4–15% precast gels (Bio-Rad Laboratories Inc., Hercules, CA, USA). […]

B1: Native endogenous HEG1: native HEG1, 400 kDa mucin-like membrane protein, in ACC-MESO4 cells (protein, UniProt Q9ULI3 30-1381, looked up)
Protein HEG homolog 1: TRDPPPSPARRALSLAPLAGAGLELQLERRPEREPPPTPPRERRGPATPGPSYRAPEPGAATQRGPSGRAPRGGSADAAWKHWPESNTEAHVENITFYQNQEDFSTVSSKEGVMVQTSGKSHAASDAPENLTLLAETADARGRSGSSSRTNFTILPVGYSLEIATALTSQSGNLASESLHLPSSSSEFDERIAAFQTKSGTASEMGTERAMGLSEEWTVHSQEATTSAWSPSFLPALEMGELTTPSRKRNSSGPDLSWLHFYRTAASSPLLDLSSSSESTEKLNNSTGLQSSSVSQTKTMHVATVFTDGGPRTLRSLTVSLGPVSKTEGFPKDSRIATTSSSVLLSPSAVESRRNSRVTGNPGDEEFIEPSTENEFGLTSLRWQNDSPTFGEHQLASSSEVQNGSPMSQTETVSRSVAPMRGGEITAHWLLTNSTTSADVTGSSASYPEGVNASVLTQFSDSTVQSGGSHTALGDRSYSESSSTSSSESLNSSAPRGERSIAGISYGQVRGTAIEQRTSSDHTDHTYLSSTFTKGERALLSITDNSSSSDIVESSTSYIKISNSSHSEYSSFFHAQTERSNISSYDGEYAQPSTESPVLHTSNLPSYTPTINMPNTSVVLDTDAEFVSDSSSSSSSSSSSSSSGPPLPLPSVSQSHHLFSSILPSTRASVHLLKSTSDASTPWSSSPSPLPVSLTTSTSAPLSVSQTTLPQSSSTPVLPRARETPVTSFQTSTMTSFMTMLHSSQTADLKSQSTPHQEKVITESKSPSLVSLPTESTKAVTTNSPLPPSLTESSTEQTLPATSTNLAQMSPTFTTTILKTSQPLMTTPGTLSSTASLVTGPIAVQTTAGKQLSLTHPEILVPQISTEGGISTERNRVIVDATTGLIPLTSVPTSAKEMTTKLGVTAEYSPASRSLGTSPSPQTTVVSTAEDLAPKSATFAVQSSTQSPTTVSSSASVNSCAVNPCLHNGECVADNTSRGYHCRCPPSWQGDDCSVDVNECLSNPCPSTAMCNNTQGSFICKCPVGYQLEKGICNLVRTFVTEFKLKRTFLNTTVEKHSDLQEVENEITKTLNMCFSALPSYIRSTVHASRESNAVVISLQTTFSLASNVTLFDLADRMQKCVNSCKSSAEVCQLLGSQRRIFRAGSLCKRKSPECDKDTSICTDLDGVALCQCKSGYFQFNKMDHSCRACEDGYRLENETCMSCPFGLGGLNCGNPYQLITVVIAAAGGGLLLILGIALIVTCCRKNKNDISKLIFKSGDFQMSPYAEYPKNPRSQEWGREAIEMHENGSTKNLLQMTDVYYSPTSVRNPELERNGLYPAYTGLPGSRHSCIFPGQYNPSFISDESRRRDYF
In the case of B1, the “SKM9-2 binding (western blot)” value in the assay on SKM9-2 [1] (Neuraminidase A) is given as “lost”; in the assay on SKM9-2 [1] (α2–3 Neuraminidase S), “weakened”.

B2: 1 kb: FLAG-tagged N-terminal deletion mutant hHEG1 (1086-1481) (protein)
chain: MSALLILALVGAAVADYKDDDDKLAAANSSIDLVNSCAVNPCLHNGECVADNTSRGYHCRCPPSWQGDDCSVDVNECLSNPCPSTAMCNNTQGSFICKCPVGYQLEKGICNLVRTFVTEFKLKRTFLNTTVEKHSDLQEVENEITKTLNMCFSALPSYIRSTVHASRESNAVVISLQTTFSLASNVTLFDLADRMQKCVNSCKSSAEVCQLLGSQRRIFRAGSLCKRKSPECDKDTSICTDLDGVALCQCKSGYFQFNKMDHSCRACEDGYRLENETCMSCPFGLGGLNCGNPYQLITVVIAAAGGGLLLILGIALIVTCCRKNKNDISKLIFKSGDFQMSPYAEYPKNPRSQEWGREAIEMHENGSTKNLLQMTDVYYSPTSVRNPELERNGLYPAYTGLPGSRHSCIFPGQYNPSFISDESRRRDYF
With B2, the “recognition by SKM9-2 upon western blot analysis” value in the assay on SKM9-2 [2] was “not detected”.

The record behind these values is paper PMC6155162, “Identification of mesothelioma-specific sialylated epitope recognized with monoclonal antibody SKM9-2 in a mucin-like membrane protein HEG1” (Scientific Reports, 2018).
